Results from patent publication US9579358B2, “Compositions for binding to amyloid proteins” (LANCASTER UNIVERSITY BUSINESS ENTERPRISES LIMITED, priority 2011, dated 2017).
Read-outs that look alike come from different tables or passages of the source. Non-standard residues stand in square brackets, D forms with d. Residues, ends and D or L forms follow the SMILES beside them. No end group written: not given here.

Assays:
Aβ42 = biological target: T1, Aβ42 (Homo sapiens, UniProt P05067); assay: Thioflavin T (ThT) assay for Aβ fibrils; type: biochemical; details: for % of control: Aβ alone = 100
T1 construct: Recombinant Aβ42, Ultrapure, was purchased from rPeptide, Bogart, Ga., USA; purchased rPeptide, Bogart, Ga., USA
Protocol: This method was the same as that published previously. Briefly, 60 μl samples of solutions containing Aβ42 (25 μM), ThT (15 μM) and between 0 and 125 μM RI-OR2 or RI-OR2-TAT, in 10 mM phosphate buffered saline (PBS), pH 7.4, were incubated in sealed, black, clear-bottomed 384-well plates (Corning). ThT fluorescence was monitored every 10 mins (λex=442 nm, λem=483 nm) for 48 h at 30° C. in a Biotek Synergy 2 plate reader.

Aβ42 fibrils = biological target: T2, Aβ42 fibrils (Homo sapiens, UniProt P05067); assay: Surface plasmon resonance binding to immobilized Aβ42 fibrils
T2 construct: purchased rPeptide, Bogart, Ga., USA
Text: SPR (Surface Plasmon Resonance) is a technique that can be used to measure the affinity of a substance for a substrate. The substrate (in this case Aβ fibrils) is bound to a solid surface and excited using a laser light source. The compound to be tested (e.g. PINPs) is allowed to flow over the bound substrate in suspension/solution and the emission spectra of the substrate will change if the compound binds. A second solution, without the test compound, can then added to elute any bound compound and the emission spectra may be observed to note loss of bound compound from the substrate. For a specific example regarding peptide binding to Aβ see reference (30).
In the examples presented here, The substance is introduced at a flow rate of 30 uL/min for 5 minute over the immobilized substrate. There is a spike in the signal which is due to the introduction of solvent without PINPs to show removal of the peptide bound to the Aβ fibrils. There are two plots related to addition of peptide at two different concentrations, 1 and 3 μM, plus a computer generated fitted curve for each one.
These experiments were conducted using a Sensi Q semi-automatic SPR machine (ICx Nomadics). This apparatus has two parallel flow cells; one was used to immobilize Aβ42 fibrils while the other was used as “reference” (empty surface). A COOH5 sensor chip (ICx Nomadics) was employed for this purpose and the peptide was immobilized by amine coupling chemistry. Briefly, after surface activation, the peptide preparation was diluted to 10 μM in acetate buffer (pH 4.0) and then injected for 5 min at a flow rate of 30 μL/min. Any remaining activated groups were blocked with ethanolamine (pH 8.0). The final immobilization level was ˜5,000 resonance units (1 RU=1 pg of protein/mm^2). The empty “reference” surface was prepared in parallel using the same immobilization procedure, but without addition of the peptide. Sensorgrams were then obtained via injection of three different concentrations of RI-OR2-TAT (1, 3 and 6 μM), as well as the vehicle (PBS with 0.005% Tween 20), over the immobilized ligand or control surface, in parallel.
These experiments were conducted using a Sensi Q semi-automatic SPR machine (ICx Nomadics). This apparatus has two parallel flow cells; one was used to immobilize Aβ(1-42) fibrils (see Aβ peptides) while the other was used as “reference” (empty surface). A COOH5 sensor chip (ICx Nomadics) was employed for this purpose and the peptide was immobilized by amine coupling chemistry. Briefly, after surface activation, the peptide preparations was diluted to 10 μM in acetate buffer (pH 4.0) and then injected for 5 min at a flow rate of 30 μL/min. Any remaining activated groups were blocked with ethanolamine (pH 8.0). The final immobilization level was 5000 resonance units (1 RU=1 pg of protein/mm^2). The empty “reference” surface was prepared in parallel using the same immobilization procedure, but without addition of the peptide. Sensorgrams were then obtained via injection of two different concentrations of RI-OR2 TAT/peptide liposome (1 and 3 μM), as well as the vehicle (PBS with 0.005% Tween 20), over the immobilized ligand or control surface, in parallel, at the same time.

[1] = read-out: Kd, binding to Aβ fibrils

T1 sequence (P05067 672-713 limits assumed): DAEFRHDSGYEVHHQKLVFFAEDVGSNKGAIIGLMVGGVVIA
T2 sequence (P05067 672-713 limits assumed): as above

Molecule: CC(=O)N[C@H](CCCNC(=N)N)C(=O)NCC(=O)N[C@H](Cc1ccccc1)C(=O)N[C@H](Cc1ccccc1)C(=O)N[C@@H](C(=O)N[C@H](CC(C)C)C(=O)N[C@H](CCCCN)C(=O)NCC(=O)N[C@H](CCCNC(=N)N)C(=O)N[C@H](CCCNC(=N)N)C(=O)N[C@H](CCCNC(=N)N)C(=O)N[C@H](CCCNC(=N)N)C(=O)N[C@H](CCC(N)=O)C(=O)N[C@H](CCCNC(=N)N)C(=O)N[C@H](CCCNC(=N)N)C(=O)N[C@H](CCCCN)C(=O)N[C@H](CCCCN)C(=O)N[C@H](CCCNC(=N)N)C(=O)NCC(=O)N[C@H](Cc1ccc(O)cc1)C(N)=O)C(C)C [RI-OR2-TAT, Ac-rGffvlkGrrrrqrrkkrGy-NH2] (Ac-[dR]G[dF][dF][dV][dL][dK]G[dR][dR][dR][dR][dQ][dR][dR][dK][dK][dR]G[dY]-NH2)
- ThT fluorescence (Aβ42; 48 h incubation of Aβ42, molar ratios 1:1, 1:2, 1:4 and 1:10 (inhibitor:Aβ42)): lower fluorescence
- increase in affinity of binding to Aβ fibrils compared to RI-OR2 (Aβ42 fibrils): approximately 1000 fold
- koff (Aβ42 fibrils; Example 2, 1, 3 and 6 μM): 0.00037 ± 1.5e-08 s⁻¹
- kon (Aβ42 fibrils; Example 2, 1, 3 and 6 μM): 3680 ± 615 M⁻¹ s⁻¹
- Kd (Aβ42 fibrils; Example 2, Langmuir 1:1 interaction model, read-out: calculated apparent affinity value (Kd)): 58 to 125 nM
- binding affinity for Aβ42 fibrils relative to RI-OR2 (Aβ42 fibrils; Example 2, versus Kd=9.5 μM): ~100 fold
- binding affinity relative to peptide without TAT (Aβ42 fibrils; Example 7): approximately 1000 times
- Kd (Aβ42 fibrils; Example 7, 1 and 3 μM, read-out: Kd, binding to Aβ fibrils): 15 to 75 nM
- Kd (Aβ42 fibrils; [1]): 41 to 75 nM

Molecule: PINPs: RI-OR2-TAT covalently attached to nanoliposomes (cholesterol:sphingomyelin [1:1] with 2.5% maleimide) via an additional cysteine (Ac-[dR]G[dF][dF][dV][dL][dK]G[dR][dR][dR][dR][dQ][dR][dR][dK][dK][dR]G[dY][dC]; not fully specified (residue 21); also: C-terminal D-Cys coupled via its thiol to maleimide lipid of nanoliposome)
- reduction in aggregate formation (Aβ42; 1:50 molar ratio of PINPS:Aβ, 48 hours, Aβ1-42 25 μM): ~50%
- ThT signal by 48 hours (Aβ42; 1:500 molar ratio of PINPs (total lipids):Aβ): below that of Aβ1-42 alone
- RFU at 48 hours (Aβ42; 1 to 1 PINPS (total lipids):Aβ, Aβ1-42 25 μM): 13817 RFU
- % of control (Aβ42; 1 to 1 PINPS:Aβ, 48 hours): 7.1%
- RFU at 48 hours (Aβ42; 1 to 5 PINPS (total lipids):Aβ, Aβ1-42 25 μM): 14450 RFU
- % of control (Aβ42; 1 to 5 PINPS:Aβ, 48 hours): 7.4%
- RFU at 48 hours (Aβ42; 1 to 10 PINPS (total lipids):Aβ, Aβ1-42 25 μM): 15664 RFU
- % of control (Aβ42; 1 to 10 PINPS:Aβ, 48 hours): 8.1%
- RFU at 48 hours (Aβ42; 1 to 50 PINPS (total lipids):Aβ, Aβ1-42 25 μM): 85107 RFU
- % of control (Aβ42; 1 to 50 PINPS:Aβ, 48 hours): 44.0%
- RFU at 48 hours (Aβ42; 1 to 100 PINPS (total lipids):Aβ, Aβ1-42 25 μM): 132977 RFU
- % of control (Aβ42; 1 to 100 PINPS:Aβ, 48 hours): 68.8%
- RFU at 48 hours (Aβ42; 1 to 500 PINPS (total lipids):Aβ, Aβ1-42 25 μM): 165060 RFU
- % of control (Aβ42; 1 to 500 PINPS:Aβ, 48 hours): 85.5%
- RFU at 48 hours (Aβ42; 1 to 1000 PINPS (total lipids):Aβ, Aβ1-42 25 μM): 171555 RFU
- % of control (Aβ42; 1 to 1000 PINPS:Aβ, 48 hours): 88.8%
- RFU at 48 hours (Aβ42; 1 to 5000 PINPS (total lipids):Aβ, Aβ1-42 25 μM): 148012 RFU
- % of control (Aβ42; 1 to 5000 PINPS:Aβ, 48 hours): 76.6%
- RFU at 48 hours (Aβ42; 1 to 10000 PINPS (total lipids):Aβ, Aβ1-42 25 μM): 204059 RFU
- % of control (Aβ42; 1 to 10000 PINPS:Aβ, 48 hours): 105%
- RFU at 48 hours (Aβ42; 1 to 50000 PINPS (total lipids):Aβ, Aβ1-42 25 μM): 199514 RFU
- % of control (Aβ42; 1 to 50000 PINPS:Aβ, 48 hours): 103%
- RFU at 48 hours (Aβ42; 1 to 100000 PINPS (total lipids):Aβ, Aβ1-42 25 μM): 188616 RFU
- % of control (Aβ42; 1 to 100000 PINPS:Aβ, 48 hours): 97.0%
- Kd (Aβ42 fibrils; [1]): 14 to 44 nM
